This is an account of results in the nanobody polyreactivity screen of Harvey et al. (2022).

A short description of this data set: yeast display, Sf9 membrane polyspecificity reagent, FACS + sequencing; frameworks hold sequencing errors. Put shortly:
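A nanobody's polyreactivity label depends on the gate it was sorted from. Yeast display cells were stained with 10% biotinylated, detergent-solubilized Sf9 membrane reagent for 1 hour at 4 °C, enriched on streptavidin microbeads and sorted by FACS. The low and high (top ~1%) gates were set on anti-HA fluorescence for expression and streptavidin fluorescence for reagent binding.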
Take “QVQLVESGGGLDQAGGSLRLSCAASGIIFRWYAMGWYRQAPGKERELVAAITASGGSTYYADSVKGRFTISRDNAKNTVYLQMNSLKPEDTAVYYCNKLRLANIQTDGYYYWGQGTQVTVSS”: the “polyreactivity (PSR sort gate)” value is reported as “high polyreactivity”.

Consider “QVQLVESGGGLDQAGGSLRLSCAASGIIITIYAMVWYRQAPGKERELVAAISFSVGSTYYADSVKGRFTISRDNAKNTFFLQMNSLKPEDTAVYYCAAESYTYPFEYWGQGTQVTVSS”, for which the “polyreactivity (PSR sort gate)” value is “high polyreactivity”.

“QVQLVESGGGLDQAGGSLRLSCAASGITFDFNDLGWYRQAPGKERELVACINGNSDSTYYADSVKGRFTISRDIAKNTVFLQMNSLKPEDTAVYYCNVPTVRYRYDSWGQGTQVTVSS”: the “polyreactivity (PSR sort gate)” value is “low polyreactivity”.

For the sequence “QVQLVESGGGLDQAGGSLRLSCAASGITFGFYTMGWYRQAPGKERELVAAITSGGSTSYADSVKGRFTISRDNAKNTVYLQMNSLKPEDTAVYYCAADYLYPFPPYQYWKQSYDYWGQGTQVTVSS”, the “polyreactivity (PSR sort gate)” value is recorded as “low polyreactivity”.

With “QVQLVESGGGLDQAGGSLRLSCAASGITFPYYAMGRYIQAPGKERELVADITSGGSTNYADSVKGRFTISRDNAKNTGYLQMNRLKPEDTAVYYCAADWYVIYDYWGQGTQVSVSS”, the “polyreactivity (PSR sort gate)” value is “low polyreactivity”.

With “QVQLVESGGGLDQAGGSLRLSCAASGLIFVRYAMGWYRQAPGKERELVATISARGASTYYADSVKGRFTISRDNAKNTVYLQMNSLIPEDTAVYYCANRGYYSRFYSYGYWGQGTEVTVSS”, the “polyreactivity (PSR sort gate)” value was “high polyreactivity”.

“QVQLVESGGGLDQAGGSLRLSCAASGLILRRYDMGWYRQAPGKERELVAAISGSGGRTYYADSVKGRFTISRDNAKNTVYLQMNSLKPEDTAVYYCAAEYSYYYDQYSYDYWGQGTQVTVSS”: the “polyreactivity (PSR sort gate)” value was “high polyreactivity”.

As for “QVQLVESGGGLDQAGGSLRLSCAASGNTLNYYTMGWYRQAPGKEREFVAAISWRGSRTYYADSVKGRFTISRDNAKNTVYLQMNRLKQEDTAVYYCATARYGYYGWTPYGDYIFDYWGQGTQVTVSS”, the “polyreactivity (PSR sort gate)” value is given as “high polyreactivity”.

For the sequence “QVQLVESGGGLDQAGGSLRLSCAASGRIFGFYAMGWYRQAPGKERELVAAITINTGSTSYADSVKGRFTISRDNAKNTVYFQMNSLKPEDTAVYYCATDAAAPKYDYWGQGTQVTVSS”, the “polyreactivity (PSR sort gate)” value is recorded as “low polyreactivity”.

As to “QVQLVESGGGLDQAGGSLRLSCAASGRIFLPNAMGWYRQAPGKEMEFVASISWSGGSTYYADSVKGRFTISRDYAKNTVYLQMNSLKPEDTAVYYCNARFGKRYYYWGQGTQVTVSS”, the “polyreactivity (PSR sort gate)” value is reported as “low polyreactivity”.

With “QVQLVESGGGLDQAGGSLRLSCAASGRIFVIIAMGWYRQAPGKERELVAAISWTGDTTYYADSVKGRFTISRDNAKNTVYLQMNSLKPEDTAVYYCAAEGYYIQSRTYSSDRYDYWGQGTQVTVSS”, the “polyreactivity (PSR sort gate)” value is “low polyreactivity”.

Turning to “QVQLVESGGGLDQAGGSLRLSCAASGRIFYPYTMGWYRQAPGKERELVAAISSTGRTNYADSVKGRFTISRDNAKNTVYLQMNSLKPEDTAVYYCAKRYRKYSLGPPGNDYWGQGTQVTVSS”, the “polyreactivity (PSR sort gate)” value was “high polyreactivity”.

Turning to “QVQLVESGGGLDQAGGSLRLSCAASGRIFYQNAMGLSRQAPGKERELVAAITSSGVSTYYADSVKGRFTISRDNAKNTVYLQMNSLKPEDTAVYYCAAYRVGYGGYSYYYWGQGTQVTVSS”, the “polyreactivity (PSR sort gate)” value was “high polyreactivity”.

As to “QVQLVESGGGLDQAGGSLRLSCAASGRIFYYYPMGWYRQAPGKERELVAGIDSGDSTNYADSVKGRFTITRDNAKNTVYLQINSLKPEDTAVYYCAALHYGGYFSYYPYYYWGQGTQATVSS”, the “polyreactivity (PSR sort gate)” value is on record as “low polyreactivity”.

As for “QVQLVESGGGLDQAGGSLRLSCAASGRISGYYDMVWYRQAPGKERELVATITSDGGTNYADSVKGRFTISRDNAKNTVYLQMNSLKPEDTAVYDCAAYGWYTKWHFAYGYWGQGTQVTVSS”, the “polyreactivity (PSR sort gate)” value is recorded as “low polyreactivity”.

In the case of “QVQLVESGGGLDQAGGSLRLSCAASGRISIRNAMGWYRQAPGKETELVAAISRSGGSTYYADSLKGRFTISRDNAKNTVYLQMNSLKPEDTAVYYCAARGYSTYPMDYWGQGTQVTVSS”, the “polyreactivity (PSR sort gate)” value is “high polyreactivity”.
